Measurements as given in the supplement of paper PMC10899765.

Tests used:
Details in all cases: 20 nM; 72 h
MCF10A [1] = test: percent viability (nuclei count relative to siNT); higher = more viable cells
Protocol: (§1)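 After 72 h, cells were fixed and stained with Hoechst and anti-fibrillarin, and nucleoli per nucleus were counted with CellProfiler. Values are plate-adjusted percent effect for the one-nucleolus and 5+ nucleoli phenotypes, normalised to siNT (0%) and to the positive controls siNOL11 or siKIF11 (100%), as the mean of biological triplicates. Percent viability is the nuclei count relative to siNT.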

MCF10A [2] = test: 5+ nucleoli phenotype percent effect (relative to siNT 0% and siKIF11 100%); higher = more cells with five or more nucleoli
Protocol: as §1

MCF10A [3] = test: one-nucleolus phenotype percent effect (relative to siNT 0% and siNOL11 100%); higher = more cells with one nucleolus (ribosome biogenesis inhibition)
Protocol: as §1

Sequence	percent viability (MCF10A [1]) [%]	5+ nucleoli phenotype percent effect (MCF10A [2]) [%]	one-nucleolus phenotype percent effect (MCF10A [3]) [%]
ACCCUUGAGCCUGAUCCCUAGC [hsa-miR-4780]	99.8	4	-13.2
AAGUGCCCCCACAGUUUGAGUGC [hsa-miR-371b-3p]	84.2	68.5	-25.4
AAGCAUUCUUUCAUUGGUUGG [hsa-miR-1179]	98.7	0.87	1.48
UCUGGGCACAGGCGGAUGGACAGG [hsa-miR-5189]	34.5	-2.97	29.3
AGACCUGGCCCAGACCUCAGC [hsa-miR-631]	25.9	-2.57	24.7
UUGGACGGUAAGGUUAAGCAA [hsa-miR-4804-5p]	35.3	-12.4	9.42
AAUGUUGGAAUCCUCGCUAGAG [hsa-miR-4781-3p]	34.3	12.4	-0.0524
UCAAAUGCAGAUCCUGACUUC [hsa-miR-7853-5p]	42.1	14	-15.6
UACGCGCAGACCACAGGAUGUC [hsa-miR-3939]	38.1	11.7	-5.45
CACUGUUUCACCACUGGCUCUU [hsa-miR-4676-3p]	49.2	18.4	-8.83
AGGCCCUGUCCUCUGCCCCAG [hsa-miR-6775-3p]	41.3	11.1	12.8
UGGGGUAAGGAUAGGAGGGUCA [hsa-miR-6881-5p]	24.8	-3.46	4.74
GUUGGGACAAGAGGACGGUCUU [hsa-miR-3122]	87.3	22.1	-20.5
UAGAGGAAGCUGUGGAGAGA [hsa-miR-3125]	23.3	-14.5	13.8
GUUCCACACUGACACUGCAGAAGU [hsa-miR-3692-3p]	49.6	6.05	-3.86
GACUGGACAAGCUGAGGAA [hsa-miR-3654]	99.2	68.1	-25.9
UUUCUAUGUUAGUUGGAAG [hsa-miR-7159-3p]	26.4	0.357	5.4
UAGGUAGUUUCCUGUUGUUGGG [hsa-miR-196b-5p]	41.4	54.4	-8.68
UUCGGGCUGGCCUGCUGCUCCGG [hsa-miR-3944-3p]	30.8	17.5	-7.09
AAUCUGAGAAGGCGCACAAGGU [hsa-miR-3200-5p]	32.7	-28.4	2.91
GCUCUGACGAGGUUGCACUACU [hsa-miR-301b-5p]	60.8	15.2	-22.6
GCUGACUCCUAGUCCAGGGCUC [hsa-miR-345-5p]	100	31.9	-8.97
CUACCCUCGGUCUGCUUACCACA [hsa-miR-7848-3p]	41.7	-35.7	25.5
UGAGGGAGGAGGUUGGGUA [hsa-miR-6133]	17.2	-0.793	1.81

Sequence	percent viability (MCF10A [1]) [%]	5+ nucleoli phenotype percent effect (MCF10A [2]) [%]	one-nucleolus phenotype percent effect (MCF10A [3]) [%]
UCCCUCGCCUUCUCACCCUCAG [hsa-miR-6803-3p]	58.1	25.3	-18.8
UAACGCAUAAUAUGGACAUGU [hsa-miR-3912]	71.2	27.3	-23.9
UGAAGUACCAGCUACUCGAGAG [hsa-miR-5585-5p]	36.7	-8.83	-3.33
GAGUGGAUAGGGGAGUGUGUGGA [hsa-miR-6849-5p]	126	31	-18.4
CCUGUCUGUGCCUGCUGUACA [hsa-miR-3120-5p]	127	4.71	-1.5
CCUCAGGGCUGUAGAACAGGGCU [hsa-miR-1266]	49.2	16.1	12.6
AUUGUUCUGUCUUUCUCCCAG [hsa-miR-6739-3p]	27.3	-25.7	7.82
UGGACCUCUCCUCCCCAG [hsa-miR-6861-3p]	40.5	7.71	2.35
UCGGGGCAUGGGGGAGGGAGGCUGG [hsa-miR-6775-5p]	57.8	35.1	-21.8
GUGAGUGUGGAUUUGGCGGGGUU [hsa-miR-6790-5p]	31.8	-26	18.2
CAGAGAAUUGUUUAAUC [hsa-miR-3123]	124	54.9	-40.8
CGGGGGCGGGGCCGAAGCGCG [hsa-miR-1237-5p]	85.4	45.4	-22
UCUGCCCCCUCCGCUGCUGCCA [hsa-miR-1913]	88.8	54.4	-11.1
UGAGAUGACACUGUAGCU [hsa-miR-4770]	33.4	-3.17	11.7
ACCUUCUUGUAUAAGCACUGUGCUAAA [hsa-miR-1248]	96.5	33.1	-15.4
GAGUUCUACAGUCAGAC [hsa-miR-3168]	22.3	-12.9	-2.63
UAAAUAGAGUAGGCAAAGGACA [hsa-miR-3121-3p]	49.3	15.6	-18
CUGGGGUUCUGAGACAGACAGU [hsa-miR-3170]	9.55	-46.2	40.9
CCCUGAGACCCUAACCUUAA [hsa-miR-4324]	84	38.6	-27
AAAUAUGAUGAAACUCACAGCUGAG [hsa-miR-4517]	24	12.3	0.779
GGCUUGCAUGGGGGACUGG [hsa-miR-4327]	40.2	7.45	12.4
UAAAGUGCUGACAGUGCAGAU [hsa-miR-106b-5p]	91.2	5.03	-11.2
UGAAGUUACAUCAUGGUCGCUU [hsa-miR-4670-3p]	36.1	-11.4	2.16
CCAAUAUUGGCUGUGCUGCUCC [hsa-miR-195-3p]	142	27.5	-16.1
